Laboratory results published in the nanobody polyreactivity screen of Harvey et al. (2022).

Assay: yeast display, Sf9 membrane polyspecificity reagent, FACS + sequencing; frameworks hold sequencing errors
Method in brief: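 Nanobodies from a synthetic yeast display library (Saccharomyces cerevisiae BJ5465), induced 36–48 hours with galactose, were stained 1 hour at 4 °C with 10% biotinylated, detergent-solubilized Sf9 membrane reagent, enriched on streptavidin microbeads, then FACS-sorted. Anti-HA (expression) and streptavidin (reagent binding) fluorescence set low and high (top ~1%) gates. Polyreactivity labels come from the gate of origin. Genes were colony-PCR amplified, MiSeq 2 × 250 sequenced and filtered by CDR length.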

Row | Sequence | polyreactivity (PSR sort gate)
1 | QVQLVESGGGLVQAGGSLRLSCAASGRTFQVNSMGWYRQAPGKERELVAALTKRGGSTSYADSVKGRFTFSRDNANNTFYLQMNSLIPEDTAVYYCNVDYWGQGTQVTLSS | low polyreactivity
2 | QVQLVESGGGLVQAGGSLRLSCAASGRTFQVNTMGWYRQAPGKERELVAAISSAGRTYYADSVKGRFTISRDNAQNTVYLQMNSLKPEDTAVYYCAAAWSYSYWKARYGYWGQGTQVTVSS | high polyreactivity
3 | QVQLVESGGGLVQAGGSLRLSCAASGRTFQVYTMGWYRQAPGKERELVAAISRSGGSTYYADSVKGRFTISRDNAKNTVYLQMNSLKPEDTAVYYCAAVPGWLTSRYYYWGQGTQVTVSS | high polyreactivity
4 | QVQLVESGGGLVQAGGSLRLSCAASGRTFQWYAMGWYRQAPGKERELVAAISWGGGRTYYADSVKGRFTISRDNAKNTVYLQMNSLKPEDTAVYYCAASYRKLPDKKRYGYWGQGTQVTVSS | high polyreactivity
5 | QVQLVESGGGLVQAGGSLRLSCAASGRTFQWYAMGWYRQAPGKERELVAAISYNGDSTYYADSVKGRFTISRDNAKNTVYLQMNSLKPEDTAVYYCAATPYPYYGYDYWGQGTQVTVSS | high polyreactivity
6 | QVQLVESGGGLVQAGGSLRLSCAASGRTFQYNAMGWYRQAPGKERELVAVISRGGRTNYADSVKGRFTISRDNAKNTVYLQMNSLKPEDTAVYYCAADWYTPQGVGLDYWGQGTQVTVSS | low polyreactivity
7 | QVQLVESGGGLVQAGGSLRLSCAASGRTFRAYALGWYRQAPGKERELVAAITSGGSTKYADSVKGRFTISRDNAKNTVYLQMNSLKPEDTAVYYCNARVRVRLGRNWSSYYYWGQGTQVTVSS | high polyreactivity
8 | QVQLVESGGGLVQAGGSLRLSCAASGRTFRAYVMGWYRQAPGKERELVAAISGRGGSTYYADSVKGRFTSSRDNAKNTVYLQMNSLKPEDTAVYYCNAVQLSQRPHDYWGQGTQVTVSS | high polyreactivity
9 | QVQLVESGGGLVQAGGSLRLSCAASGRTFRENAMGSSRPAPGKERELVAAIRRSGGRTYYADSVKGRFTISRDNAKNTVYLQMHSLKPEDTAVSDCIAVADGYAFRRPYVTYYYWGQGTQVTVSS | low polyreactivity
10 | QVQLVESGGGLVQAGGSLRLSCAASGRTFRENAMGWYRPAPGKERELVAAISWRAGSTYYADSVKGRFTISRDNAKNTVYLQMNSLKPEDTAVYYCAAKYTVSFYLWGTFNYWGQGTQVTVSS | high polyreactivity
11 | QVQLVESGGGLVQAGGSLRLSCAASGRTFRFNAMGWYRQAPGKERELVAAISFRGGSTYYADSVKGRFTISRDNAKNTVYLQMNSLKPEHTAVYYCAARARTGTYRDMYYWGQGTQVTVSS | high polyreactivity
12 | QVQLVESGGGLVQAGGSLRLSCAASGRTFRFYAMGWSRQAPGKERELGAAITGSGGSTYYADSVKGRFTISRDNAKNTVYLQMNCLKPEDTAVYYCAASRWREYHASKMDYWGQGTQVTVSS | low polyreactivity
13 | QVQLVESGGGLVQAGGSLRLSCAASGRTFRGNVMGWYRQAPGKEREFVAAITKSDGSTYYADSVKGRFTISRDIAKNTVYLQMNSLNPEDTAVDYCAARTARTGWPWFRFDYWGQGTQVTVSS | low polyreactivity
14 | QVQLVESGGGLVQAGGSLRLSCAASGRTFRGNVMGWYRQATGKEREFVAAITRSGSNTYYADSVKGRFTISRDYAKTTVYLQMNSLKPEDTAVYDCAKSVLLGYKRHDSWGQGTQVTVSS | high polyreactivity
15 | QVQLVESGGGLVQAGGSLRLSCAASGRTFRGYVMGWYRQAPGKERELVAAISKSGGSTYYADSVKGRFTISRDIAKNTVYLQMNSLKPEDTAVYYCNALPRTQYDYWGQGTQVTVSS | low polyreactivity
16 | QVQLVESGGGLVQAGGSLRLSCAASGRTFRHYAMAWYRQAPGKERELVASIRWNGASTNYADSVKGRFTISRDNAKNTVYLQMNSLKPEDTAVYYCNARYLFYSGYVYWGQGTQVTVSS | high polyreactivity
17 | QVQLVESGGGLVQAGGSLRLSCAASGRTFRINAMGCYRQAPGKERELVAAITSGGRTNYADSVKGRFTISRDNAKNTVYLQMNSLKPEDTAVYYCAAERTPSYRAYDYWGQGTQVTVSS | low polyreactivity
18 | QVQLVESGGGLVQAGGSLRLSCAASGRTFRIYAMGWYRHAPRKERELVAAIRWSGGTTYYADSVKGRFSISRDNAKNTVYLQMTSLKPEDTAVYYCAADSTNRYDYCGQGTQVTVSS | high polyreactivity
19 | QVQLVESGGGLVQAGGSLRLSCAASGRTFRIYAMGWYRQAPGKEREFVAAITWSGGRTYYADSVKGRFTISRDNAKNTVYLQMNSLKPEDTAVYYCAADPTYLRTLRFGSYDYWGQGNQVTVSS | high polyreactivity
20 | QVQLVESGGGLVQAGGSLRLSCAASGRTFRIYAMGWYRQAPGKERELVAAINSGGTTNYADSVKGRFTISRDNAKNTVYLQMISLKPEDTAVYYCAVRYWKTLSHFSYDYWGQGTQVTVSS | low polyreactivity
21 | QVQLVESGGGLVQAGGSLRLSCAASGRTFRIYAMGWYRQAPGKERELVAAISARGGSTYYADSVKGRFTISRDNAKNTVYLQMNSLKPEDTAVYYCAAEKTRRVDYWGQGTQVTVSS | high polyreactivity
22 | QVQLVESGGGLVQAGGSLRLSCAASGRTFRIYAVGWYIQAPGKERELVARITWSGGRTYYADSVKGRFTISRDNAKNTVYLQMNSLKPEDTAVYYCNAGGSWEFDYWGQGTQVTVSS | low polyreactivity

Row | Sequence | polyreactivity (PSR sort gate)
23 | QVQLVESGGGLVQAGGSLRLSCAASGRTFRKYAMGWYRQAPGKERELVAAISQRGGTTYYADSVKGRFTISRDNAKNTVYLQINSLKPEDTAVYYCNVAWVGVSLVYGPFEYDYWGQGTQVTVSS | high polyreactivity
24 | QVQLVESGGGLVQAGGSLRLSCAASGRTFRKYAMGWYRQAPGKERELVAAISWSGGSTYYANSVKGRFTISRDYAKNTVYLQMNILKPEDTAVYYCAAVPVHTGSLYWGFTTGYDYWGQGTQVTVSS | low polyreactivity
25 | QVQLVESGGGLVQAGGSLRLSCAASGRTFRKYAMGWYRQAPGKERELVAAISWSGGSTYYANSVKGRFTISRVNAKNTVYLQMNSLKPEDTAVYYCAAVPVDTGSLYWGFTTGYDYWGQGTQVTVSS | low polyreactivity
26 | QVQLVESGGGLVQAGGSLRLSCAASGRTFRKYTMGWYRQAPGKEREFVAAITYSGGSTYYADSVKGRFTISRDNAKNTGYLQMNSLKPEDTAVSYCFTRGGYYLYYSYYYWGQGTQVTVSS | high polyreactivity
27 | QVQLVESGGGLVQAGGSLRLSCAASGRTFRLYALGWYRQAPGKERELVAAIRSSGGRTYYADSVKGRFTISRDNAKKTVYLQINSLKPEDTAVYYCATTSGLIGYYWKYNYWGQGTQVTVSS | high polyreactivity
28 | QVQLVESGGGLVQAGGSLRLSCAASGRTFRLYAMGWSRPAPGKERELVAAISSGGSTYYADSVKGRFTISRDNAKNTVYLQMNSLKPEDTAVYYCFAWVYQFGYWGQGTQVTVSS | low polyreactivity
29 | QVQLVESGGGLVQAGGSLRLSCAASGRTFRLYAMGWYRQAPGKERELVADITTGGGSTYYADSVKGRFTISRDNAKNTVYLQMNSLKPEDTAVYYCAAEQDTVWFLWIVDYWGQGTQVTVSS | low polyreactivity
30 | QVQLVESGGGLVQAGGSLRLSCAASGRTFRNNAMGWYRQAPGKERELDAAIKGSGGSTYYADSVKGRFTISRDNAKNTVYLQMNSLKPEDTAVYYCAKAVVPWGPNFRPNHTRGYYWGQGTQATVSS | low polyreactivity
31 | QVQLVESGGGLVQAGGSLRLSCAASGRTFRNYAMGWYRQAPGKEREFVAAITGRGGSTYYADSVKGRFTISRDNAKNTVYLQMNSLKPEDTAVYYCAAVSGRTGQRTYYPYYYWGQGTQVTVSS | high polyreactivity
32 | QVQLVESGGGLVQAGGSLRLSCAASGRTFRPNAMGWYRQAPGNERELVASITRRGGTTYYADSVKGGFTISRDNAKNTVYLHMNSLKPEDTAVYYCNAPPGYSSTRNGYWGQGTQVTVSS | high polyreactivity
33 | QVQLVESGGGLVQAGGSLRLSCAASGRTFRPYAMGWYRQAPGKEMELVAAIDSSGTSTYYADSVKGRFTISRDTAKNTVYLQMNSLKPEDTAVYYCAKAWPDHWYSRYDYWGQGTQLTVSS | low polyreactivity
34 | QVQLVESGGGLVQAGGSLRLSCAASGRTFRPYAMGWYRQAPGKERDLVAAIDSSGTSTYYADSVKGRFTISRDNAKKTVYLKMNSLKPEDTAVYYCAKAWPDHWYSRYDYWGQGTQVTVSS | low polyreactivity
35 | QVQLVESGGGLVQAGGSLRLSCAASGRTFRPYAMGWYRQAPGKERELVAAISSRGSSTYYADSVKGRFTISRDNAKNTVYLQMNSLKPEDTAFYYCAAEGSVGLYGLIMHYWGQGTQVTVSS | high polyreactivity
36 | QVQLVESGGGLVQAGGSLRLSCAASGRTFRPYAMGWYRQAPGKERELVAAISYRGGITNYADSVKGRFTISRDNAKNTVYLQMNSLKPEDTAVYYCNRYAIWVSRFSDLDYWGQGTQVTVSS | low polyreactivity
37 | QVQLVESGGGLVQAGGSLRLSCAASGRTFRQYAMGWYRQAPGKERELVAAIRTNGGRTYYADSVKGRFTISRDNAKNTVYLQMNSLKPEDTAVYYCAVYDVVQGVLFDYWGQGTQVTVSS | high polyreactivity
38 | QVQLVESGGGLVQAGGSLRLSCAASGRTFRRNVMGWYRQAPGKERELVAAISTRGGDTYYADSVKGRFTISRDNAKNTVYLQMNSLKPEDTAVYYCAAEYTYGYDYWGQGTQVTVSS | high polyreactivity
39 | QVQLVESGGGLVQAGGSLRLSCAASGRTFRRYAMGLYRQAPGKERELVASISTSGGSTYADSVKGRFTISRDNAKNTVYLQMNSLKPEDTAVYYCAVRSPRYVRNGDYWGQGTQVTVSS | high polyreactivity
40 | QVQLVESGGGLVQAGGSLRLSCAASGRTFRRYAMGWYRQAPGKEREFVAAIRYSGGITYYADSVKGRFTISRDNAKNTVYLQMNSLKPEDTAVYYCAAYGWGNRWYSRFDYWGQGTQVTVSS | high polyreactivity
41 | QVQLVESGGGLVQAGGSLRLSCAASGRTFRRYAMGWYRQAPGKERELVAAISRTGSTNNYADSVKGRFTISRDNAKNTVYLQMNSLIPEDTAVYYCKRQHNLGYGYDYWGQGTQVTVSS | high polyreactivity
42 | QVQLVESGGGLVQAGGSLRLSCAASGRTFRRYAMGWYRQAPGKERELVAAITNRGASTYYADSVKGRFTISRDNAKNTVYLQMNSLKPEDTAVYFCNTDPVSGLVWKGTEYDYWGQGTQVTVSS | low polyreactivity
43 | QVQLVESGGGLVQAGGSLRLSCAASGRTFRRYAMGWYRQAPGKERELVAAITSGGDTYYADSVKGRFTISRDNAKNTVYLQMNSLKPEDTAVYYCNAASVTRRTGIRAVDFDYWGQGTQVTVSS | high polyreactivity
